Where two headings read alike, the source gives them in different places.
What was measured:
[1] = biological target: T1, CX3CR1 nucleosome (human core histones, wild type) (human, UniProt P04908 1-124; O60814 1-124; P68431 1-136; P62805 1-103)
[2] = biological target: T1, CX3CR1 nucleosome (human core histones, …); test: with scFv

- Kd [1]: 1700 nM
- Kd [2]: 1500 nM
B1: MBP-DBDC/EBPα (protein)
chain: MHLQPGHPTPPPTPVPSPHAAPALGAAGLPGPGSALKGLAGAHPDLRTGGGGGGSGAGAGKAKKSVDKNSNEYRVRRERNNIAVRKSRDKAKQRNVETQQKVLELTSDNDRLRKRVEQLSRELDTLRGIFRQLPESSLVKAMGNCA
